Data on 8 sequences can be found in a protein production outcome set (Wang et al. 2014).

A short description of the series: label from the status in PepcDB records.
For “MARDNENILEEWCLIESNPCIFYDMLKRMGATEISVEDVYSLSYFDDYINNKEIINMNHILGVDTYLGENNKTLDKENNVVDVIELYKNNICMEDKYNKLLKHHSYIYGIIFLFNIGKHYKNNKYIEHNVPDNLFFAKQVIPNACATQAILSIVLNKDIELNDEIKNIKTFSLNFDSSMKGLTLSNCTFLRNIHNSYKPPIYLDKEDVHHDKKKSEDSFHFVSYISFQDKVYLLDGLQSGPVLINADEQNKPNPNNNNNNKDNDNDNNNNNNNNNNNNNNNNNNNNNNNNNNIGMNGKDWIEISREHIKKEIDEICNSQTNNDVRFNIIAVMKDKEYIIQEYINIHRIVKQRVNIKLINLGENIELSDEINEDEFPLLNDIPSIENLPNNVDTLYNIVNKSTLEINYLQSLLHEQKEIKKLWNIELTFKFFNFYPFIMSSLNLMAKHKLLKDAYQKEKLKNATKS”, the protein production result is on record as “failed”.
In the case of “MNRPAMPFANTVPGFLPFLNDEKGLRQESQQRYLYTLRPFEAYLNRGGIALSGLEPAHISRFLEERAKTLHKAGMRDTAGALRIFLRYLHREGIVATDLVRSVPRGRIYRQASIPRALEHHHHHH”, the protein production result is given as “failed”.
Turning to “MVAEKERVLMDLQDVFEYAFDEIFVTDDKGIVVRVNSTCERHYQIAAKELVGKHVKELQKDGIFYPSATLEVIEKKRPIELVQTTKSGEYLHVRTRPVFDDEGNLRRVISYSRDLTELYQLRQKVEEMDNQLKTYKKELRETYEHEGLIFKSIAMQKIIETIKKVSVVDSTVLVLGETGVGKSRLVRHLHEMSNRKNESFYEINCAALPTNLIESELFGYSGGSFTGANREGKKGLLESAHKGTLFLDEIGEMPLEIQAKLLQVLQEKTFRPIGGRELKKVDVRIVAATNRDLSMMVKQGTFRKDLYYRLNVIPILIPPLRERTEDILPLIYHYLQHFNEKYGRNVKLAPSTLQMFVGYPWEGNNREIENVIERIVITADDIVTIEDLPIAMQESTVEQSGQSLYKMLEEVERNIILKAYKTYGSSYKVAEFLKISQSAATRKIKKLIEEEENIG”, the protein production result is “failed”.
In the case of “MRAVIPYKKAGAKSRLSPVLSLQEREEFVELMLNQVISSLKGAGIEQVDILSPSVYGLEEMTEARVLLDEKDLNEALNRYLKEAEEPVLIVMADLPLLSPEHIKEISSTEKDVCIVPGKGGGTNALFIKNPSKYRVKYYGSSFLTHCSIATDSGQDFEIYDSFMAGTDIDEPEDLVELLIHGKGAAKDYIESKFRLEVKKGRVGLVPL”, the protein production result was “not failed”.
“MQLKSRVFIVTGASSGLGAAVTRAGSGGRDSARAGPEAASGGRACRSSARRCASEMPTRMRPTPPPLAFAKQEFGHVHGLVNCAGTAPGEDSRQERPARTGQFRPHGRRQPDRHSTYGLPPRSCRRESRTPTASGVIVNTASIAAFDGQIGQAAYAAEGRRRRPDASGRARARAFRNSRRPLRPASSIRRWPACLRMFRMRAASVPFPPRLGRAEEYAALVKHIREYDAQWRGHPPRRGFAHGAPV”: the protein production entry was “not failed”.
With “MVVYGADVICASCVNAPTSKDIYDWLQPLLKRKYPNISFKYTYIDITKDNDNLTDHDLQFIERIEQDELFYPLITMNDEYVADGYIQTKQITRFIDQKLVNE”, the protein production result is listed as “not failed”.
Regarding “MNMVQGSAFLAKLMKSADTFELKYDFSCELYRLSTYSTFPAGVPVSERSLARAGFYYTGVNDKVKCFSCGLMLDNWKQGDSPIEKHRKLYPSCSFVQTLNPANSLEASPQPPLPSTATSTMPSGFAASESTGYFSGSYSSFPSDPVNFRANQDCPAFSTSPYHFAMNTEKARLLTYQTWPLSFLSPAELAKAGFYYTGPGDRVACFACGGKLSNWDRKDDPLSEHRRHFPSCPFLKDVGQFTSQYTVSNLSMQTHAARVRTFSTWPSSALVHPQELASAGFYYTGHSDDVKCFCCDGGLRCWESGDDPWVEHAKWFPRCEYLIRIKGQEFVGQVQAGYPHLLEQLLSTSDSPEDETGEAAIVHLGPGENWEDAVMMNTPVVKAALDMGFSRSLVRQTVQRQILATGENYRTVSDLVIGLLDAEDEMREEQTEQEAEEEESDDLTLIRKNKMVLLQHLTPVTPILDCLLSARVITEQEYDAVKQKPHTLQARTLIDTVLAKGNTAATSFRNSLQEIDPGLYRDIFVRQNIRSLPTDDIAALPMEEQLRKLQEERTCKVCMDREVSLVFIPCGHLVVCKECAPSLRKCPICRGTIKGTVRTFLS”, the protein production entry is “failed”.
As to “MSATYQLALQQLTDSALPTGAFAHSLGFESYIHRGLVRDESTFSTWLQAFVSQQLSYSDGLALRFLFEGVDVGLLDGVLSAQLLAREVREASLKMGGRLLEIGGEVFPSAELEAYRGLVRAGSASGHQPLAFGVIARSLGVPLEEALSAYLFATVTSLTQNAVRAIPLGQNAGQRVLRQAHDAVAAAIHVVAQLCWDDFGAVSPGLEISQMRHERQRARMFMS”, the protein production entry is “failed”.
